Source: patent US9962447B2, “Supramolecular aggregates comprising maleimido cores” (UFPEPTIDES S.R.L., priority 2013, dated 2018)

Tests used:
[1] = tested on: spontaneous locomotor activity; test: Mouse locomotor activity, CD-1 mice, i.c.v.; assay type: in vivo
[2] = tested on: locomotor activity of NOP(−/−) mice; test: Locomotor activity of NOP(−/−) mice; details: 0.25 nmole, 120 min post injection
Description: (§3) Mice were positioned in a square plastic cage (40×40 cm), one mouse per cage. Four mice were monitored in parallel. Mouse horizontal activity was monitored by a camera while vertical activity was measured by an infrared beam array. Animals locomotion was recorded for 60 min.
(§4) In vivo data are expressed as mean±sem of n animals. Data were analysed using one-way analysis of variance (ANOVA) followed by Dunnett post hoc test. Differences were considered statistically significant when p<0.05.

[3] = tested on: electrically stimulated mouse vas deferens; test: Electrically stimulated mouse vas deferens
Description: The bath temperature was set at 33° C. Tissues were continuously stimulated through two platinum ring electrodes with supramaximal rectangular pulses of 1 ms duration and 0.05 Hz frequency. A resting tension of 0.3 g was applied to the vas deferens.
assuming a slope value equal to unity, where CR indicate the ratio between agonist potency in the presence and absence of antagonist.

MOP receptor = MOP receptor (Homo sapiens, UniProt P35372); test: Calcium mobilization in CHO cells expressing MOP receptor and Gαqi5; assay type: cell-based; details: inactive = inactive up to 1 μM
Description: (§1) Cell cultures were kept at 37° C. in 5% CO2 humidified air. In all cases experimental cultures were free from selection agents (hygromycin B, G418). When confluence was reached (3-4 days), cells were sub-cultured as required using trypsin EDTA and used for experimentation. Cells were seeded at a density of 50,000 cells/well into 96-well black, clear-bottom plates. After 24 hours incubation the cells were loaded with medium supplemented with 2.5 mM probenecid, 3 μM of the calcium sensitive fluorescent dye Fluo-4 AM and 0.01% pluronic acid, for 30 min at 37° C. Afterwards the loading solution was aspirated and 100 μl/well of assay buffer: Hank's Balanced Salt Solution (HBSS) supplemented with 20 mM HEPES, 2.5 mM probenecid and 500 μM Brilliant Black (Aldrich) was added. […] On-line additions were carried out in a volume of 50 μl/well. To facilitate drug diffusion into the wells in antagonist type experiments, the present studies were performed at 37° C. and three cycles of mixing (25 μl from each well moved up and down 3 times) were performed immediately after antagonist injection to the wells.
(§2) Four mice were monitored in parallel. […] Animals locomotion was recorded for 60 min.

[4] = tested on: locomotor activity of NOP(+/+) mice; test: Locomotor activity of NOP(+/+) mice; details: 0.25 nmole, 120 min post injection
Description: as §3, §4

[5] = tested on: vas deferens tissues taken from NOP(+/+) mice; test: Electrically stimulated vas deferens from NOP(+/+) mice; design: species or system mouse
Description: The bath temperature was set at 33° C. Tissues were continuously stimulated through two platinum ring electrodes with supramaximal rectangular pulses of 1 ms duration and 0.05 Hz frequency. A resting tension of 0.3 g was applied to the vas deferens. […] Following an equilibration period of 60 min, the contractions induced by electrical field stimulation were stable.

human NOP receptor = human NOP receptor (Homo sapiens, UniProt P41146); test: Calcium mobilization in CHO cells expressing human NOP receptor and Gαqi5; assay type: cell-based; details: inactive = inactive up to 1 μM
Description: as §1, with “Cells were maintained in culture medium consisting of Dulbecco's MEM/HAM'S F-12 (50/50) supplemented with 10% foetal calf serum, penicillin (100 IU/ml), streptomycin (100 μg/ml), fungizone (2.5 μg/ml), geneticin (G418; 200 μg/ml) and hygromycin B ([…]). Cell cultures” for “Cell cultures”, “50 μl/well. […]” for “50 μl/well. To facilitate drug diffusion into the wells in antagonist type experiments, the present studies were performed at 37° C. and three cycles of mixing (25 μl from each well moved up and down 3 times) were performed immediately after antagonist injection to the wells.”
as §2

[6] = tested on: vas deferens tissues taken from NOP(−/−) mice; test: Electrically stimulated vas deferens from NOP(−/−) mice; design: species or system mouse; details: CL95% in brackets
Description: The mouse vas deferens were prepared as previously described (Calto et al., Eur J Pharmacol. 311, (1996) R3-5). Tissues were suspended in 5 ml organ baths containing heated Krebs solution (composition in mM: NaCl 118.5, KCl 4.7, KH2PO4 1.2, NaHCO3 25, glucose 10 and CaCl2 2.5) oxygenated with 95% O2 and 5% CO2. The bath temperature was set at 33° C. Tissues were continuously stimulated through two platinum ring electrodes with supramaximal rectangular pulses of 1 ms duration and 0.05 Hz frequency. A resting tension of 0.3 g was applied to the vas deferens. The electrically evoked contractions (twitches) were measured isotonically with a strain gauge transducer (Basile 7006, UgoBasile s.r.l., Varese, Italy) and recorded with the PC based acquisition system Power Lab (ADInstrument, USA). Following an equilibration period of 60 min, the contractions induced by electrical field stimulation were stable.

human NOP receptor, sequence (P41146 whole entry, the tested form may be a part): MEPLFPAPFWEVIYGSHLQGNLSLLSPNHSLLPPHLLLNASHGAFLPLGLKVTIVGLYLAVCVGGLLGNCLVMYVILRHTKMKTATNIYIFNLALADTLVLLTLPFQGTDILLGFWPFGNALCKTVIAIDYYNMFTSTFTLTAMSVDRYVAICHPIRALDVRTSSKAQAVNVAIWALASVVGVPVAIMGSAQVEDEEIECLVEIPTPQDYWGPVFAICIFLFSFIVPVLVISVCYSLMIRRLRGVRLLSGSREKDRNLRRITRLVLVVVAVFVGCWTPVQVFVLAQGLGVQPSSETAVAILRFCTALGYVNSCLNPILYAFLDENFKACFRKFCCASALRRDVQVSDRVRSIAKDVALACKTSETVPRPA
MOP receptor, sequence (P35372 whole entry): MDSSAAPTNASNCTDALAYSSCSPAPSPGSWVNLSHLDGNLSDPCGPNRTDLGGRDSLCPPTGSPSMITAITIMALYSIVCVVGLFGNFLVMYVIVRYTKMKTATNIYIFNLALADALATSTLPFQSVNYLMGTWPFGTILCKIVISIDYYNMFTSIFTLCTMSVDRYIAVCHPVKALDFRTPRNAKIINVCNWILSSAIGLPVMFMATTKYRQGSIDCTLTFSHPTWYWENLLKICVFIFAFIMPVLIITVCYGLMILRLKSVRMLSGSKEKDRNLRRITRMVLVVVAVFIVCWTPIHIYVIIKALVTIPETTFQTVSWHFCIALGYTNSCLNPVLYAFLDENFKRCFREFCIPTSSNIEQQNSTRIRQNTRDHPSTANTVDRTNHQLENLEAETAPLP

B1: PWT2-N/OFQ: supramolecular aggregate of maleimido core PWT2 with nociceptin/orphanin FQ, made from PWT2 and [Cys18]N/OFQ-NH2 by thiol-Michael addition (conjugate)
peptide: SCQRDCLTCQEKLHPALDSFDLEVCILECEEKVFPSPLWTPCTKVMARSSWQLSPAAPEHVAAALYQPRASEMQHLRRMPRVRSLFQEQEEPEPGMEEAGEMEQKQLQKRFGGFTGARKSARKLANQKRFSEFMRQYLVLSMQSSQRRRTLHQNGNVC
- locomotor activity in overnight experiment ([1]; i.c.v. at 11 AM, N/OFQ 10 nmole, PWT2-N/OFQ 0.25 nmole, measured 3 PM to 9 AM): statistically significant reduced distance travelled and rearing behaviour associate with increased immobility time for the whole time course of the experiment
- acute effects on spontaneous locomotor activity ([1]; i.c.v., CD-1 mice, recorded for 120 min): slow onset of action and prolonged effects compared to the natural peptide
- Distance travelled (m) [2]: 203 ± 26 m
- Immobility time [2]: 2372 ± 525 s
- Rearings (n) [2]: 625 ± 181 n
- reversal of inhibitory effect after washing the tissue [3]: rather resistant to washing
- Emax ([3]; % inhibition of control twitch): 93 ± 2%
- onset of inhibitory effect ([3]; after adding to the bath): slow inhibitory effect
- pEC50 ([3]; inhibition of twitch response, CD1 mouse vas deferens, CL95% in brackets): 7.78 (7.57-7.99)
- time for inhibitory effect to reach the plateau ([3]; mouse vas deferens): 10 min
- pEC50 (MOP receptor): inactive
- Distance travelled (m) [4]: 104 ± 19 m
- Immobility time [4]: 3305 ± 390 s
- Rearings (n) [4]: 96 ± 19 n
- pEC50 ([5]; CL95% in brackets): 7.92
- Emax ([5]; maximal inhibition of electrically induced contractions): 91 ± 2%
- pEC50 (CL95%) (human NOP receptor): 8.83
- pEC50 [6]: 5.85 (5.55-6.15)
